Assay results reported in the nanobody polyreactivity screen of Harvey et al. (2022).

Assay: yeast display, Sf9 membrane polyspecificity reagent, FACS + sequencing; frameworks hold sequencing errors
Method in brief: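 Nanobodies from a synthetic yeast display library (Saccharomyces cerevisiae BJ5465), induced 36–48 hours with galactose, were stained 1 hour at 4 °C with 10% biotinylated, detergent-solubilized Sf9 membrane reagent, enriched on streptavidin microbeads, then FACS-sorted. Anti-HA (expression) and streptavidin (reagent binding) fluorescence set low and high (top ~1%) gates. Polyreactivity labels come from the gate of origin. Genes were colony-PCR amplified, MiSeq 2 × 250 sequenced and filtered by CDR length.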

Row | Sequence | polyreactivity (PSR sort gate)
1 | QQQLHESGGGLVQAGGSLRLSCAASGSISQAWYMGWYRQAPGKERELVAAINVGAITYYADIVKGRFSISRDNAKNTVFLPMNSLTPEDTAVYYCAVDQYSEAYYDYWGQGTQATVSS | high polyreactivity
2 | QRQLVESGGGLVQAGGRLRLSCAASGMTVWDYAMGWYRHATGKERQLVAAISGSGARTYYADSVKWRFTISRDTAKNTVYLQMNSLNPEDTAVYYCAARAVRATAKYEYWGQGTQVTVSS | high polyreactivity
3 | QVDLVASGGGLVQAGGSLRLSCAASGNIFANYAMGSYRQAPGKERELVAAIRWSASRTYYADSVKARFTISRDNAKNSVYFQLNSLKPEDTAVYYCAATIYTFWDYYYDYWGQGTQVTVSW | high polyreactivity
4 | QVEHLDSGGGLVQAGGILRLSCASSGIIFGYYAMGWYRQEPGKERELVAGITYRTGSTYYADSVKGRFTISRDNAKNTVYLQMNSLKPEDTEVYFCAATQYTRNYSSWYYYWGQGTQVTVSS | high polyreactivity
5 | QVEIVESGGGLVQAGGSLRLSCAASGRTFSYYAMGWYRQAPGKERELVAAISTSGGSTYYAVSVKGRFTISRDYAKITVYLQMNSLKPEDTAVYVCAASPYLRFLYGGFGYWGQGTQVTVSS | high polyreactivity
6 | QVELVASGGGLVQAGGSLRIRCAASGGIFDGNAKGWYRQAPGKEREMVAAISSGGITKYAASVKGRFTISRDNAQYTVYLQMNSLKPEDSAVYYCAASWDRYRFIRNDYWGQGTQVTVSS | high polyreactivity
7 | QVELVESAAGLVQAGGSLRLSCAASALTFSRYTMGWYSQAPGKDRELVAAISRSGASTYYADSVKGRFTISRDNAKNTVYLQTNSLTPEDTGVYYCAKTSTSYGSLPKVTPYPLDYWGQGTQVTVSS | high polyreactivity
8 | QVELVESGGGLVQAGGRPRLSCAASGSTFAGYAMGWERQAPGKERELVAAISRRGGSTYYADSVKGRFTISRDNAKNTVYLQMNSLKPEDTAVYFFARDYPLHYDYWGQGTQVTVSS | high polyreactivity
9 | QVELVESGGGLVQAGGSLRLSCAASGFIFEKYTMGWYRQATGKETELVADITWNGGSTYYADSVKGRFTISRDNAKNTVYLQMNSLKPEDNAVYYCAARVGWNQRRYDYWGQGTQVTVSS | low polyreactivity
10 | QVELVESGGGLVQAGGSLRLSCAASGFIFYRYTMGWYRQAPGKEREVVAAISRRGGSTYYADSVKGRFTISRDNAKNTVYLQLNSLKPEDTAGYYCAARLGGYPRQGRYDYWGQGTQVTVSS | high polyreactivity
11 | QVELVESGGGLVQAGGSLRLSCAASGFTFDRYAMGWYRQAPGTERELVAALTRRGTTTYYADSVKGRFTISRDNAKNTVYLQMNSLKPEDTAVYYCAAKRGSVSRPDYGANDESWGQGTQVTVSS | high polyreactivity
12 | QVELVESGGGLVQAGGSLRLSCDASGITFRSYAMGWYRQAPGKERELVAAIRSGGSTSYADSVKGRFTISRDNAKNTVYLQMNSLKPEDTAVYFCAAGGYVPLTDITFWKFGYWGQGSQVTVSS | low polyreactivity
13 | QVHHVESGFGLVQAGGSLRLSCASSGTFTVNTMGWYRQAPGKERELVAAISTGDTTTYADSVKGRFTISRDNAKNTVYLQMNSLKPEDTAVYYCNVDIGVYAYESDYWGQGTQVTVSS | low polyreactivity
14 | QVHHVESGGGLVQAGGSLRLSCAASGIIFGYNVMGWYRQEPGKVRELVAAMRYSGGSTYYADSVKGSFTISRDNAKNTVYLQMNSLKPEDTAVYYCATYSAVRELLWGNGYWGQGTQVTVSS | high polyreactivity
15 | QVHHVESGGGLVQAGGSLRLSCAASGITFSSYAMGWYRQAPRKERELVAAISYGGGNTYYADSVKGRFTISRDNAKNTVYLQMNSLKPEDTAVYYCNTLYTSYSGLDYWGQGTQVTVSS | high polyreactivity
16 | QVHHVESGGGLVQAGGSLRLSCAASGLTFYGYTMGRSRQAPGKERELVAAISRGTSTKYADSVKGRFTISRDNAKNTVYLQMNSLKPEETAVYYCAAKGSRSGMGYWGQGTQVTVSS | high polyreactivity
17 | QVHHVESGGGLVQAGGSLRLSCAASGSTFGAHAMGWYRQAPGKERELVAVITWNDGSTYYADSVKGRFKISRDNAKNTVYLQMNSLKPEDTAVYYCAAEYADSWSAFAWNYYYWGQGTQVTVSS | high polyreactivity
18 | QVHHVESGGGLVQAGGSLRLSCAASGSTFYGYALGWYRQAPGKERELVAAITGSGDTTYYADSVKGRFTISRDNAKYTVYLQMNSLKPEDTAVYYCNRDYRSDLGYADQSWTDQYDHWGQGTQVTVSS | low polyreactivity
19 | QVHHVESGGGLVQAGGSLRLSSAASGSIFTYTMGWYRQAPGKERELVAAISGGGGRTYYADSVKGRFTISRDNAKNNVYLQMKSLKPEDSAVYYCNAYQYWRYRWQYNYWGQGTQVTVSW | high polyreactivity
20 | QVHHVESGGGLVQAGGSLRLSSAASGSIISYYAMGWSRHAPGKERELVPAINRSGGSTYYADSVKGRFTITRDNAKNTVYLQMNSLKPDDTAVYYCNAVRLYYGAGGQFQYHYWGQGTHVTVSS | high polyreactivity
21 | QVHIVESGGGLVQAGGSLRLSSAASGRIFYRYAMGWYRQAPGKERELVAAISRRGGSTYYADSVKGRFTISRDNAKNTVYLQMNSLKPEDTAVYYCNVYRSAFSYDSWGQGTQVTVSS | high polyreactivity
22 | QVHLEESGGGLVQAGGSLRLSCAASGRTFRHNAMGWYRQAPGKERELVAAISSSGTNTHYADSVKGRFTISRDNAKNTVYLQMNSLKPEDTAVYYCAADRWGARRKQYHENGYWGQGTQVTVSS | high polyreactivity

Row | Sequence | polyreactivity (PSR sort gate)
23 | QVHLEESVGGLLQAGGSLRLSCVASGSTFGAYAMGWYRQAPGKERELVAAINTGDSTNYADSVKGRFTISRDNAKNTVYFQMNSLKPVDTAVYYCAAVSKHSGDELDYWGQGTQVTVSS | high polyreactivity
24 | QVHLGESGARIDQAGGSLRLSCAASGRIFKYNAMGLYRQAPGKEREWVAAISSGGSTNYADTEKGRFTISRDNAKNTVYLQMNSLKPEDTAVYYCAADGTRVSSFHYLVWLGYWGQGTQVNVSS | low polyreactivity
25 | QVHLGESGGGLVQAGGSLRLSGAASGFTFAVNAMGWYRQAPWNERELVAGITSGGRTNYADSVKGRFTISRDNAKNTVYLQMTSLKPEVTAVYYCAAARRYSKGYVPPYYKYRYDYWGQGTHVTVSS | high polyreactivity
26 | QVHLLESGRGLVQAGGSLRLSCAASGRIFYTNAMGSYRQAPGKERELVAVISWGGDTTYYADSVKGRFTISRDNAKNTVYLQMNSLKPEDTAGYYCNADWGPTYEISDSWGQGNQVTVSS | low polyreactivity
27 | QVHLQESAGGLVQAGGSLRLTCSASGYISFDASMGWYRQAPGKERELAASIPKGSSTNYADSVKGRFTIRDNATITVYLQMNSLQPEDTAVCYCAVTYPYWGDYTYWGQGTQVTVSC | low polyreactivity
28 | QVHLQESGGGLMQAGGSQRLSSAASGSISYYSDMGWYRQAPGKEREFVAGIGYGTTTNYADSVKGRFTTSRDNGKNTVYLQMSSMKPEDTAVYYCAAYQGNGYEFYYWGQGTQVTVRS | low polyreactivity
29 | QVHLQESGGGLVQACGSQRLSCAARGSISEGQDMGWYRRAPGKEREFVAGIAPGATTYYADSVRGRFTISRDNANNTVSLQMNSLKPEDTAVYYCAARTVTETDHDYWGQGTQVTVSS | low polyreactivity
30 | QVHLQESGGGLVQAVGSLRLSCAASGNISEYYDMGWYRQAPGKERKFVAGIDFGAITNYADSVKGRFTISRDNAKNTEYLQMRSLKPEDTAVYYCAAGVYDWYAYDYWGQGTQVTVSS | high polyreactivity
31 | QVHLVDSGGGKVQAGGSLRLSCAASGSIFYWNAMGWYRQAPGKERELVATITITTSTNYADSVKGRFTISRDNATHSVYLQMNSMKPEDTAVYYCNAGAPYRYLDEYNYWGQGTQVTVSS | low polyreactivity
32 | QVHLVDSGGGLVQAGGRLRLSCAASASIFLIYAMGWYRQAPGQERELVAAINYSGVRTYYADSVKGRFTISRDNAKNTVYLQMNSLKPEDSAVYYCAVSRGGAYYQYGYWGQGTQVSVSS | high polyreactivity
33 | QVHLVDSGGGLVQAGGSLRLSCAASGRIIYGNAMGWYRQSPGKERELVAAISSGTSTNYADSVKGRFTISRDNAKNTVYLQMNSLKPEDTAVYYCAAGSYSRYIYSLYFDFDYWGQGTQVTVSS | low polyreactivity
34 | QVHLVDSGGGLVQAGGSLRLTCSASGFTFRYYTMGWYIQAPGKERELVAVIRSTGSTNYADSVKGRFTISRDNAKNTVYLQMNSLKPEDTAVYYFNAARGWYNPPKYGSIGFDFWGQGTQVTVSS | high polyreactivity
35 | QVHLVESCGALVHAGGSLRLSCAASGSIFRGNAMGWYRQAPWKERELVAAITGSGGNTYYADSVKGRFTISRDNAKNTVYLQMNSLKPEDTAVYYCNADGWNTYIGPRRYSYDYWGQGTQVTISS | low polyreactivity
36 | QVHLVESCGGLVQARGSLRLSCAASGSTIDYNSMGWYRLAPWKEREMVATITSSVGSTYYEDSVKGRYTISRDNAKNTVDLHMNCVKPEDTAVYYCAADYDYPDYYAPSWRRYTYWGQGTQVTVSS | low polyreactivity
37 | QVHLVESGGALVQAGRSLRLSCAASGSTFTINVKGWYRQAPGKERELVAAINGGGRTNYADSVKGRFTISRDNAKNTVYLLMNSLKPEDTAVYYCAADGLSNVRQMDYWGQGTQVTVSS | low polyreactivity
38 | QVHLVESGGCLVQAGGSLRLSCAASGSIFGDYVMAWYRQAPGKERELVAAITRGGSTYYADSVKGRFTFSRDNAKNTVYLQMNSLKPEDTAVYYCAASYYFVQWGWYYYWGQGTQVTVSS | low polyreactivity
39 | QVHLVESGGCLVQAGGSLRLSGAASGGNFSTYAMGWYRQAPGKERELVSSITERGGSTYYADSVKGRFTISRDNAKNTFDLQMNSLKPEDTAVYYCAADWDASWWLVPTSSYDYWGEGTQVTVSS | low polyreactivity
40 | QVHLVESGGGFVQAGGSLGLSCAASGLTFSGNTMGCYTPAPGKERELVAAISSDGSTNYADSVKGRFTLSRDNAKYSVYLQMNSLKPEDTAVYYCNARVRYYFAFWRDYWGQGTQVTVSS | low polyreactivity
41 | QVHLVESGGGFVQAGGSLRLSCAASGSICGSYAMGWYRQAPGKERELVAAISKSGGNTYYADSVKGRFTISRDNAKNTVYLQMNSVKPEDTAVYYCAAYGFYRWRGYDYSGQGTQVTVSS | high polyreactivity
42 | QVHLVESGGGIVQAGGILRLSCAASGNTFYENVMGWYRQTPGKEREFVAAITYIGGNTYYADSVKGRFTISRDNAKNTVYLQMNSLKPEDTAVYYCAAEWDWPTYYTYYWYFSYDYWGQGTQVTVSS | low polyreactivity
43 | QVHLVESGGGLDQAGGSLRLRCAATGRTFKYYAMGWYRQAPGKERELVAAISGSGGSTYYADSVKGRFTISRDNAKNTVYLQMNSLKPEDTAVYYCAAAGKETSRYAYDSWGQGTQVTVSS | high polyreactivity
